Among the data in patent US20230381334A1 are EC50 values, retold here.

Non-standard residues stand in square brackets, D forms with d. No end group written: not given here.

In this assay the target is mouse anti V5 antibody (Thermo Scientific). The assay is described as follows: ELISA: 1 ug/ml mouse anti V5 with increasing SADC, complexes captured on streptavidin via biotinylated SADC peptide, bound IgG detected with anti mouse IgG-HRP. For orientation: ELISA stands for enzyme-linked immunosorbent assay.
Broadly, the EC50 is the concentration needed to bring the measured effect to its halfway point. As to IPNPLLGLDGGSGDYKDDDDKGK[BiotinAca]GC (peptide, part only; not given: albumin scaffold, part only, also: bound to albumin scaffold, attachment site not given here) [SADC with albumin scaffold carrying tagged V5 peptide …-(BiotinAca)GC], the EC50 was 0.0279 µg/mL.

As to IPNPLLGLDGGSGDYKDDDDKGK[BiotinAca]GC (peptide, part only; not given: haptoglobin scaffold, part only, also: bound to haptoglobin scaffold, attachment site not given here) [SADC with haptoglobin scaffold carrying tagged V5 peptide …-(BiotinAca)GC], the EC50 was determined as 0.0555 µg/mL.

In turn, IPNPLLGLDGGSGDYKDDDDKGK[BiotinAca]GC (peptide, part only; not given: transferrin scaffold, part only, also: bound to transferrin scaffold, attachment site not given here) [SADC with transferrin scaffold carrying tagged V5 peptide …-(BiotinAca)GC] returned an EC50 of 0.007 µg/mL.
